# Experimental data: article PMC4802922
# Biological target: Dnmt3a-CD wt;Dnmt3L (Mus musculus;) (UniProt O88508+Q9CWR8)
# Test: 2-aminopurine fluorescence (base flipping)
# Conditions: 0.1 mM AdoMet; N15 of strand 1 = 2-aminopurine (replaces target C); C15 of strand 2 = 5-methylcytosine; Fluorescence polarization: 10 nM duplex, 0.1 mM AdoHcy, Dnmt3a reaction buffer (composition not given), 25 °C; enzyme up to 600-800 nM
# Dnmt3a-CD wt;Dnmt3L (Mus musculus;), sequence (O88508 608-908, chain 1 of 2): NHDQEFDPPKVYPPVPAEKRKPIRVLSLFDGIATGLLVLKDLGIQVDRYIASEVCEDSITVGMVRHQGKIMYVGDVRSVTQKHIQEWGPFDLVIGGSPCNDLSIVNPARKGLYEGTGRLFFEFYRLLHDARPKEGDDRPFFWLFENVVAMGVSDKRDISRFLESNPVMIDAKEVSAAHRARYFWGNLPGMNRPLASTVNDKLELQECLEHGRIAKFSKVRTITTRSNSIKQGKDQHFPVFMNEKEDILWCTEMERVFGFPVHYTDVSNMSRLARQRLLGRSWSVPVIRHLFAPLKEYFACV
# Dnmt3a-CD wt;Dnmt3L (Mus musculus;), sequence (Q9CWR8 whole entry, chain 2 of 2): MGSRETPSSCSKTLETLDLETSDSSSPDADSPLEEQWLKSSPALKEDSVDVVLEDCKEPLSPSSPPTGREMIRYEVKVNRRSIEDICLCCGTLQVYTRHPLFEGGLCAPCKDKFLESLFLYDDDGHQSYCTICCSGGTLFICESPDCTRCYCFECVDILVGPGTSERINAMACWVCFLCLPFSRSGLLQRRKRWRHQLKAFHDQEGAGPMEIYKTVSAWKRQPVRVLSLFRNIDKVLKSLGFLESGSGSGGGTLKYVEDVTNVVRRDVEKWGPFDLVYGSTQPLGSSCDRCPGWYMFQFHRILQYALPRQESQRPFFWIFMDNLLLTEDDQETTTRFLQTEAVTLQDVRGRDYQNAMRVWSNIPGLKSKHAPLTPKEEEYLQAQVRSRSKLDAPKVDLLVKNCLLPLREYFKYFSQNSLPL
sequence,measurement,value
CTGAATACTACTTGNGCTCTCTAACCTGAT / ATCAGGTTAGAGAGCGCAAGTAGTATTCAG [GBGC/CGMG],binding signal,100%
